T1: co-expressed complex of MBP-tagged human BRMS1 (residues 51-179) and His6-tagged mouse SDS3 (residues 43-234) (human | mouse, UniProt Q9HCU9 51-179; Q8BR65 43-234)
T1 construct: BRMS1, human, residues 51-179; SDS3, mouse, residues 43-234; The two chains were co-expressed and then combined with the separately expressed ARID4A R2 domain; also called SDS3, BRMS1; source: E. coli, co-expressed, purified (Ni-NTA, SEC)
T1 sequence (looked up) 1: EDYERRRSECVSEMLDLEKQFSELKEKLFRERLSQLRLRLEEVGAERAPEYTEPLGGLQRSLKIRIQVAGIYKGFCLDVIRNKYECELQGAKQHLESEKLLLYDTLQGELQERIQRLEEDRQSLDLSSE
T1 sequence (looked up) 2: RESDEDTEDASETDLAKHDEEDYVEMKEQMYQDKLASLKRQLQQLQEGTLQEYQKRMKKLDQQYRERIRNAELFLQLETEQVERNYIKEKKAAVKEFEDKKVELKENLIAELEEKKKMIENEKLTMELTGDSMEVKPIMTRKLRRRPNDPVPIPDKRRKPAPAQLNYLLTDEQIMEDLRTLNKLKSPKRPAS

B1: Rxt2 with a TAP tag at the C-terminus (natural protein, S. cerevisiae)
chain: MTIRSSMKNNAELESKSVLANESNIISTFTRRIIKEKSGNYQVLKRSLDGKLIYPEATGISSNRGNKLLQRSEVVTRRDLNNSKPMIEQTVFYNGSEHRLLQTNIVTDSRRKRIKFTPDINVEPVLVGDENDIDGSEKEDENITDEYYGEEDDDDLSKLVNVKEILTPILSLGDIINHKTISRTFSSPILKNLALQIILMIEKEQMSVVRYSQFLEVFLGDHPEPIYESNLNLPSYNHNLTLPEDRGASDEDDINNKNNINEVNSNSLSTEAGHINNGMEEFGEEDPFFALPRLEQSNALLSLLPSSSGSASISTLTAAEQQQLNEEIESARQLSQIALQRNKEFIRNLQKIRKSVIKANRIRGRILNWSREYLGISDDDITIPVALRVVKRGLISATTNKTTNFEEEIENTMEDGVVDDNEPDEEANRA
notes: Rxt2, subunit of the S. cerevisiae Rpd3L complex; expressed from the tagged strain; not shown: TAP tag, C-terminal, kept
B2: Rpd3 (enzyme, S. cerevisiae, UniProt P32561 1-433, looked up)
chain: MVYEATPFDPITVKPSDKRRVAYFYDADVGNYAYGAGHPMKPHRIRMAHSLIMNYGLYKKMEIYRAKPATKQEMCQFHTDEYIDFLSRVTPDNLEMFKRESVKFNVGDDCPVFDGLYEYCSISGGGSMEGAARLNRGKCDVAVNYAGGLHHAKKSEASGFCYLNDIVLGIIELLRYHPRVLYIDIDVHHGDGVEEAFYTTDRVMTCSFHKYGEFFPGTGELRDIGVGAGKNYAVNVPLRDGIDDATYRSVFEPVIKKIMEWYQPSAVVLQCGGDSLSGDRLGCFNLSMEGHANCVNYVKSFGIPMMVVGGGGYTMRNVARTWCFETGLLNNVVLDKDLPYNEYYEYYGPDYKLSVRPSNMFNVNTPEYLDKVMTNIFANLENTKYAPSVQLNHTPRDAEDLGDVEEDSAEAKDTKGGSQYARDLHVEHDNEFY
notes: Rpd3, histone deacetylase, the catalytic subunit of the S. cerevisiae Rpd3L complex; endogenous subunit; Present in two copies in the Rpd3L complex, one in each lobe; also called Rpd3-I; Rpd3-II
B3: Sds3 (natural protein, S. cerevisiae, UniProt P40505 1-327, looked up)
chain: MAIQKVSNKDLSRKDKRRFNIESKVNKIYQNFYSERDNQYKDRLTALQTDLTSLHQGDNGQYARQVRDLEEERDLELVRLRLFEEYRVSRSGIEFQEDIEKAKAEHEKLIKLCKERLYSSIEQKIKKLQEERLLMDVANVHSYAMNYSRPQYQKNTRSHTVSGWDSSSNEYGRDTANESATDTGAGNDRRTLRRRNASKDTRGNNNNQDESDFQTGNGSGSNGHGSRQGSQFPHFNNLTYKSGMNSDSDFLQGINEGTDLYAFLFGEKNPKDNANGNEKKKNRGAQRYSTKTAPPLQSLKPDEVTEDISLIRELTGQPPAPFRLRSD
notes: Sds3, subunit of the S. cerevisiae Rpd3L complex; endogenous subunit
B4: Sap30 (natural protein, S. cerevisiae, UniProt P38429 1-201, looked up)
chain: MARPVNTNAETESRGRPTQGGGYASNNNGSCNNNNGSNNNNNNNNNNNNNSNNSNNNNGPTSSGRTNGKQRLTAAQQQYIKNLIETHITDNHPDLRPKSHPMDFEEYTDAFLRRYKDHFQLDVPDNLTLQGYLLGSKLGAKTYSYKRNTQGQHDKRIHKRDLANVVRRHFDEHSIKETDCIPQFIYKVKNQKKKFKMEFRG
notes: Sap30, subunit of the S. cerevisiae Rpd3L complex; endogenous subunit
B5: Dep1 (natural protein, S. cerevisiae, UniProt P31385 1-405, looked up)
chain: MSQQTPQESEQTTAKEQDLDQESVLSNIDFNTDLNHNLNLSEYCISSDAGTEKMDSDEEKSLANLPELKYAPKLSSLVKQETLTESLKRPHEDEKEAIDEAKKMKVPGENEDESKEEEKSQELEEAIDSKEKSTDARDEQGDEGDNEEENNEEDNENENEHTAPPALVMPSPIEMEEQRMTALKEITDIEYKFAQLRQKLYDNQLVRLQTELQMCLEGSHPELQVYYSKIAAIRDYKLHRAYQRQKYELSCINTETIATRTFIHQDFHKKVTDLRARLLNRTTQTWYDINKERRDMDIVIPDVNYHVPIKLDNKTLSCITGYASAAQLCYPGEPVAEDLACESIEYRYRANPVDKLEVIVDRMRLNNEISDLEGLRKYFHSFPGAPELNPLRDSEINDDFHQWAQ
notes: Dep1, subunit of the S. cerevisiae Rpd3L complex; endogenous subunit
B6: Pho23 (natural protein, S. cerevisiae, UniProt P50947 1-330, looked up)
chain: MSSPANLFPGLNDITDVLEEFPLATSRYLTLLHEIDAKCVHSMPNLNERIDKFLKKDFNKDHQTQVRLLNNINKIYEELMPSLEEKMHVSSIMLDNLDRLTSRLELAYEVAIKNTEIPRGLRLGVDNHPAMHLHHELMEKIESKSNSKSSQALKSESRREAMAANRRQGEHYSASTHQQDDSKNDANYGGSRHESQDHTGNNTNSRKRANAANTNNADPETKKRKRRVATTAVSPSTISTATAVNNGRIGTSTASRGVSSVGNSNNSRISRPKTNDYGEPLYCYCNQVAYGEMVGCDGADCELEWFHLPCIGLETLPKGKWYCDDCKKKL
notes: Pho23, subunit of the S. cerevisiae Rpd3L complex; endogenous subunit
B7: Rxt3 (natural protein, S. cerevisiae, UniProt Q07458 1-294, looked up)
chain: MSVSEQDPNRAYRETQSQIYKLQETLLNSARTKNKQEEGQESNTHSFPEQYMHYQNGRNSAYDLPNVSSQSVLAFTEKHYPNKLKNLGTLYYNRFKEGSFDEDSTSYSDRHSFPYNLYDNTLPPPFLPAIGIQNINNIATLKITYEDIQASFNNIESPRKRNNEIWGCDIYSDDSDPILVLRHCGFKIGAPSGGSFHKLRRTPVNVTNQDNVTGNLPLLEGTPFDLEVELLFLPTLQKYPSVKRFDITSREWGSEATVIHDGLSYGIYSIVIKQRLDRDKPHEPNGYIKNLKWT
notes: Rxt3, subunit of the S. cerevisiae Rpd3L complex; endogenous subunit
B8: His6-tagged human ARID4A R2 domain (residues 1164-1230) (domain or fragment, UniProt P29374 1164-1230, looked up)
chain: SPRTYKWSFQLNELDNMNSTERISFLQEKLQEIRKYYMSLKSEVATIDRRRKRLKKKDREVSHAGAS
notes: ARID4A, human, R2 domain, residues 1164-1230; Construct in the pMCSG7 vector; source: E. coli, expressed separately, purified (Ni-NTA, SEC)

Experiments:
Sin3 [1] = biological target: T2, Sin3 (S. cerevisiae, UniProt P22579 1-1536); assay: affinity purification with mass spectrometry; tandem affinity purification from S. cerevisiae lysate by the TAP tag on Rxt2 (IgG resin, TEV protease, calmodulin resin; washes with 500 to 750 mM KCl); the purified complex analysed by mass spectrometry; conditions: partners not purified
T2 construct: Sin3, principal scaffolding subunit of the S. cerevisiae Rpd3L complex; endogenous subunit; Present in two copies in the Rpd3L complex, one in each lobe; also called Sin3-I; Sin3-II

Rpd3 [2] = biological target: B2; assay: as above; conditions: partners not purified
Sin3 [3] = biological target: T2, Sin3; assay: cryo-EM structure; Rpd3L complex purified by TAP, crosslinked on ice with 1 mM BS3 for 15 min, graphene oxide coated grid; map at 3.5 Å, lobes I and II focus refined to 3.4 Å; conditions: both partners purified
Sds3 = biological target: B3; assay: as above; conditions: both partners purified
Rpd3 [4] = biological target: B2; assay: as above; conditions: both partners purified
Dep1 = biological target: B5; assay: as above; conditions: both partners purified
[5] = biological target: T1, co-expressed complex of MBP-tagged …; assay: SEC; Ni-NTA purified proteins on a Superdex 75 GL column in 25 mM MOPS pH 7.5, 150 mM NaCl, 1 mM TCEP; co-elution; conditions: both partners purified

T2 sequence (P22579 whole entry): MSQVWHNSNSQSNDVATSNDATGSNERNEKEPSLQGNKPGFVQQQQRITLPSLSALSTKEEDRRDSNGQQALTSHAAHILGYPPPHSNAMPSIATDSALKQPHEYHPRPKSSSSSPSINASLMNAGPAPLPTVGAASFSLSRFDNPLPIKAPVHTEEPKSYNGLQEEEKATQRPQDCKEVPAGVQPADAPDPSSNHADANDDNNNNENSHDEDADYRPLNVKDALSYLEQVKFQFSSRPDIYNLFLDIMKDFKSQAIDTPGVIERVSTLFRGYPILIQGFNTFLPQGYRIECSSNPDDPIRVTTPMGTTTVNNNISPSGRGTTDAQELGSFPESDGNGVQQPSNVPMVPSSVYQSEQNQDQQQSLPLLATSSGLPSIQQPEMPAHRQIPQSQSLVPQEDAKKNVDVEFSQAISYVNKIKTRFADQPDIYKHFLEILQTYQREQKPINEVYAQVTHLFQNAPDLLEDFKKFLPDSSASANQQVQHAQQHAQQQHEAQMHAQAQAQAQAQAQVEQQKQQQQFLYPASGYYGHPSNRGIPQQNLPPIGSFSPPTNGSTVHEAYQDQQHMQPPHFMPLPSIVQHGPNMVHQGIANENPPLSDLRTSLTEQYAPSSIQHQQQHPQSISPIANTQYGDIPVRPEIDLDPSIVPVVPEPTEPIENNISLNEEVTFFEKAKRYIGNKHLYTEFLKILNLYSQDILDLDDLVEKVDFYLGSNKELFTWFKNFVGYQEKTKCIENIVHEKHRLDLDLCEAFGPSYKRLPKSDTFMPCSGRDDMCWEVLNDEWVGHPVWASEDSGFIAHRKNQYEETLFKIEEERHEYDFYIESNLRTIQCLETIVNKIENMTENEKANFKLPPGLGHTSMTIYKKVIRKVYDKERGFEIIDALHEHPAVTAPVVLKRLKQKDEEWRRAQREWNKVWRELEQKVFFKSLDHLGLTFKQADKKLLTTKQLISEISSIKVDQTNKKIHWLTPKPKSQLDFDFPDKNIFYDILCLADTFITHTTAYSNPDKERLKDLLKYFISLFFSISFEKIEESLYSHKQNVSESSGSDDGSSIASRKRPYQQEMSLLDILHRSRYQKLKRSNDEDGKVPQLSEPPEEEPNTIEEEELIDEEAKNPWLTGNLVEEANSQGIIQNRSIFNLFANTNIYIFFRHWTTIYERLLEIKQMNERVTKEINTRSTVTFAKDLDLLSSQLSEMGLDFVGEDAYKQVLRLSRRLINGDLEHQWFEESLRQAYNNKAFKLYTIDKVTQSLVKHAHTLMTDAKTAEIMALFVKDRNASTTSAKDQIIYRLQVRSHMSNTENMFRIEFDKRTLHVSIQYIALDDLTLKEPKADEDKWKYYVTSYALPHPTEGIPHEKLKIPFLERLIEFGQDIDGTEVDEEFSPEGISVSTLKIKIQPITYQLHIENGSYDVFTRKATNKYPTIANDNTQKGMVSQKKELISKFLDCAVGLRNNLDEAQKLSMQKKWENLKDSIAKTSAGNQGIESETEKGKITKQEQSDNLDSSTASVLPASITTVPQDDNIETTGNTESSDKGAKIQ

B1
binding result (Sin3 [1]): binds
binding result (Rpd3 [2]): binds

B2
binding result (Sin3 [3]): binds

B3
binding result (Sin3 [3]): binds

B4
binding result (Sin3 [3]): binds
binding result (Sds3): binds

B5
binding result (Sin3 [3]): binds
binding result (Rpd3 [4]): binds

B6
binding result (Dep1): binds
binding result (Rpd3 [4]): binds

B7
binding result (Sin3 [3]): binds

B8
binding result [5]: binds

From publication PMC10224958, “Cryo-EM structure of the Saccharomyces cerevisiae Rpd3L histone deacetylase complex” (Nature Communications, 2023)
